Laboratory results from the supplement of paper PMC12455559.
± gives the standard deviation of the averaged measurements.

Tests used:
[1] = melting temperature (DSF); higher = more thermostable
Protocol: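 Candidate PET hydrolases were expressed in E. coli C41(DE3) in 2 mL autoinduction cultures in 24-deep-well plates, Ni-bead purified and released by SUMO protease cleavage on an OT-2 robot. Yield per well was measured by BCA; values below 25 ug (0.1 mg/mL) are below the detection threshold. Melting temperature was measured by differential scanning fluorimetry with Sypro Orange, ramping from 25 C at 0.3 C/step.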

[2] = purified protein yield per well (BCA); higher = higher soluble expression
Method in brief: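 Purified protein yield per well is reported, as measured by the Pierce Rapid Gold BCA kit. The enzymes came from E. coli C41(DE3) autoinduction cultures of 2 mL with 100 µg/mL kanamycin, held at 37 °C for 2 h and 18 °C for 40 h, then lysed and purified on Ni-charged magnetic beads with SUMO protease release. The detection threshold is 25 ug (0.1 mg/mL), and lower values are under it.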

[3] = PET hydrolysis, aromatic products released after 48 h (umol product/mg enzyme); higher = more PET depolymerization activity
Protocol: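 HTP-purified, SUMO-cleaved, tagless PET hydrolase candidates (5 ug, 1.43 mg/g PET) were incubated 48 h without shaking with 3.5 mg amorphous PET film (aFilm) or crystalline PET powder (cryPow) in 0.5 mL buffer: NaCitrate pH 4.5/5.5, NaPhosphate pH 6.5/7.5, glycine pH 8.5. Incubation was at 40 or 60 C. Aromatic products (TPA, MHET, BHET) in the supernatant were quantified by UV absorbance at 260/280 nm relative to buffer blanks and expressed per mg enzyme. LCC-ICCG was the positive control on every plate.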

[4] = substrate: cryPow, 40 °C, pH 4.5
[5] = substrate: cryPow, 40 °C, pH 5.5
[6] = substrate: cryPow, 40 °C, pH 6.5
[7] = substrate: cryPow, 40 °C, pH 7.5
[8] = substrate: cryPow, 60 °C, pH 4.5
[9] = substrate: cryPow, 60 °C, pH 5.5
[10] = substrate: cryPow, 60 °C, pH 6.5
[11] = substrate: cryPow, 60 °C, pH 7.5
[12] = substrate: cryPow, 40 °C, pH 8.5
[13] = substrate: cryPow, 60 °C, pH 8.5
[14] = substrate: aFilm, 40 °C, pH 4.5
[15] = substrate: aFilm, 40 °C, pH 5.5
[16] = substrate: aFilm, 40 °C, pH 6.5
[17] = substrate: aFilm, 40 °C, pH 7.5
[18] = substrate: aFilm, 60 °C, pH 4.5
[19] = substrate: aFilm, 60 °C, pH 5.5
[20] = substrate: aFilm, 60 °C, pH 6.5
[21] = substrate: aFilm, 60 °C, pH 7.5

Sequence	melting temperature [1]	purified protein yield per well [2]	PET hydrolysis [3, 4]	PET hydrolysis [3, 5]	PET hydrolysis [3, 6]	PET hydrolysis [3, 7]	PET hydrolysis [3, 8]	PET hydrolysis [3, 9]	PET hydrolysis [3, 10]	PET hydrolysis [3, 11]	PET hydrolysis [3, 12]	PET hydrolysis [3, 13]	PET hydrolysis [3, 14]	PET hydrolysis [3, 15]	PET hydrolysis [3, 16]	PET hydrolysis [3, 17]	PET hydrolysis [3, 18]	PET hydrolysis [3, 19]	PET hydrolysis [3, 20]	PET hydrolysis [3, 21]
AAAAGRADQRGPDPSVAGVAATYGPFATAQLTVPAGNGFNGGYIYYPTDTSLGTWGAVAIVPGYSALFANEEAWMGPRLASFGFVVIGIETTTRTDGADARATQLLAALDYLTQRSPVRDRVDPGRLAVMGHSAGGAGALLAAMRRPSLRAVVGLAPGSPTGLSSLSTDVVPTLFVGGQQDPTVTPSYLDNLYATLPASTQSAYVQLGGADHLFFTRANDVEIRRLVPWLKLFLDGDTRYTQFMCPTTPDTTGVSRYSAKCPLVPPGGPTGSASPSSPGASNSPSSPPASSSAPGAACVATYRTVGQWSGGFQGEVTVTAGGRPVNGWTVRWALGSGQAVSQLWNGALSTSGSAVSVRNVSYNGALAASASTTFGFLGSGTPSTPALSCTSP [ESM041]	47.8 C	106 µg	< 3	< 3	< 3	< 3														
AADNPYQRGPDPTPASVSANRGTFATTQVAVAAGNGFGGGVIYYPTDTSQGQFGAIAVVPGYTATWAAEGAWMGHWLASFGFVVIGIDTNNRNDWDTARGTQLLAALDYLTQRSSVRDRVDATRTAVMGHSMGGGGAASASLQRPSLKASIGLAPASFSQNLTTTRVPTMLLSGQNDTTITPASVVNLYNGIPASVEKAYLELSGAGHGFPTSNNSTMMRNVIPWFKVFVDSDTRYTQFLCPLANWSGIRTYQSTCPLVPSTPPTSTTTSTTTSTTTSTTTTTTPQPVGACNATYRTTNSWPGGYQGEVTVTAGESGVNGWTTRWTLGSGQTVTQVWNGTLTVDGSTASVRNAAYNGSLPAGGSAAFGFIGGGTPPTSLTCTSP [ESM023]	55 C	221 µg	< 3	< 3	< 3	5	< 3	< 3	< 3	< 3										
AAGYERGPNPTSSALEATRGPFSVASTNVSSLSASGFGGGTIYYPTDTSQGTFGGVVIAPGYTASKSSMAWLAERLASHGFVVFNIDTITRSDQPDSRGRQILAAADHLAEESSSTVRRRLDASRIGVMGHSMGGGGTLAAADSRPSLKAAVPLTPWHLDKSWGNVRVPTMIIGAENDTIAAVGSHSEPFYNSLSAAPEKAYLELNGASHFAPNSDNDTIAKYGISWMKRFVDEDTRYDQFLCPAPGRSTTIEEYRSSCPHS [DP086]	39.1 C	90 µg		< 3	< 3	< 3		< 3	< 3	< 3	< 3	< 3								
AANPYERGPAPTAASIAATTGPFAVASVSVPRGNGFGGGVIYYPTSTSQGTFGGVAISPGLNGTWAGIAWLGPRLASQGFVIFGIETNNLNDSPASRGTQLLAALDFLTRSSSVRTRVDASRLAVAGHSMGGGGALSAALQRPSLQAAIGNAPHLPSGSLATDRVPTLIYAMQNDTLVTPSRLTSLYNSMPATTERAYIEVAGAGHNYIGQPSTTLARTMIPWLKIFVDNDARYSQFLCPLSNQSGISQYRNSCPLISTTTLSTGVDSTSGLAVR [ESM157]	61 C	313 µg	< 3	17.5 ± 2.1	50	69.5 ± 3.5	< 3	3	7.5 ± 0.71	14.5 ± 0.71			< 3	< 3	< 3	< 3	< 3	< 3	< 3	< 3
AANPYERGPAPTDAVLEASRGPFATTSYSVSGLSVTGFGGGVVYYPTSTSEGTFGAIAISPGYTATWSSLSWLGPRIASHGFVVIGIETNTLLDQPDSRGRQLLAALDYLVQRSSVRGRIDAGRLAVAGHSMGGGGTLEAAAARPSLQAAVPLAPWNLDKTWSGVTVPTLIVGGESDSVAPVASHSVPFYNSIPASSEKAYLELNGASHFFPQSVNTPTAKQMVAWLKRFVDNDTRYEQFLCPGPSGLAIEEYRNTCPSS [TEP018]	40.6 C	65.6 µg	< 3	< 3	< 3	< 3	< 3	< 3	< 3	< 3										
AANPYERGPDPTDAILEAARGPFETSRTEVPALSVTGFGGGTIYYPATTSAGTFGGVAVAPGYTADRTSLAWLAERLASHGFVVFNIDTLTRLDQPDSRGRQLLAALDYLTQRSSVRGRLDAGRLGVMGHSMGGGGTLEAARDRPSLQAAVPLTPWDLTKIWSGVRVPTMIVGAEADTIAPVASHAEPFYQSLPSSPGKAYLELNNATHFAPNVPDTTIGKYVVAWMKRFVDDDTRYTRFLCPGPSGGLTVEEYRSTCPFS [TEP194]	50.8 C	325 µg	5	8.5 ± 0.71	7	1.5 ± 2.1	3.5 ± 0.71	7	3.5 ± 0.71	< 3			< 3	< 3	< 3	< 3	< 3	< 3	2 ± 2.8	< 3
AANPYQRGPAPTAASVAAVTGPFATASVSVPRGNGFGGGVIYYPTDTSQGTFGGLAISPGLNGTWPGIAWLGSRLASQGFIVFGIETNNLNDSPTSRGTQLLAALDYLAQRSSVRSRLDPGRLAVAGHSMGGGGALDAALRRPSLKAAIGNAPYLPSNTLAGNRVPTLIYAMQNDTLVPPSRLTSLYNTIPATTERAYLEITGAGHNYIGQPSTTLARTMIPWLKIFIDNDTRFSQFLCPLADQSGIRQYRSSCPLVPATTRALTAAAG [DP043]	67.3 C	92 µg		12	39	96		7	62	98	115	107								
AASPYERGPDPTEQTITAERGPFQVATATVPANSASGFNRGTIYYPTDTSQGTFGAVAIIPGFIEPESTMSWYGPRLASQGFVVFTLEPFSVLNFPDDRANQLLAALDYLTGSSSVRSRVDASRLAVMGHSMGGGGTLRAAEMRPSLQAAIPLAPWHLHGDWRNVRVPTMIQAADNDFIAGVGNHAQPFYQNLTNAPEKAYLLFENYGHMSWISANTPIAKYSIAWLKRYVDDDTRYSKFLCPAPGAPSSTFQEYRHTCPD [DP044]	69.4 C	28 µg		< 3	< 3	< 3					< 3									
ADSPYQRGPDPTPASVAATRGPFATTQATVPAGNGFNGGYVYYPTDTSQGTWGAVAIVPGYSALFANEEAWMGPWLASFGFVVIGIETNSRTDGADARATQLLAALDYLTRTSPIRDRVDANRLGVMGHSAGGAGTLLAALRRPTLKTAVGLAPGTPGNNLNMSTTQVPTMLLSGQNDGTVTPTYVQGIYNTLPAGVEHAWAELAGNDHLSFTRSNPTEMRLLIPWLKTFLDNDTRYTQFLCPLANSTGVSRYNATCPLVPPDGPTSPPTTTPPTSAPPTTSAPTTPPPSGATCTATYRTVNSWSGGFQGEVTVTAGAAALNGWTVRWESNNGQSISQVWNGTLSTSGSTATVRNVSYNGSLAAGATTTFGFLSSGTPAATSPTCASP [ESM051]	54.4 C	27.3 µg																		
FSATGPSAPCSNCTRGPAPTVTALKASTGPFTTAKFSVSGFLKGYGDSTVYYPTNTTGKMGAIAVIPGYLSYESSIDWWGPRLASHGFVVMTMNTKTIYDQPDSRASQLSEALDYLIAQSKSSSSPLYNKIDSTRLGAIGWSMGGGGSLKLATQRSINAIIPQAPWYLGSSAFSGIKTPTLILACSADTVAPVAQHASPFYNQIPNSTPKAFLEIYGGSHFCANSGYPNQDMLGMYGIAWMKRFIDFDSRYSQFLCGPNHESDYAISDYRENCPY [ESM055]	55.3 C	28.9 µg																		
TADSSYQRGPAPTEASVRADRGPFQVARVNVPGAGFGSGTIYYPTDTSQGTFGGVAVSPGFLSPEILIAWLGPRLASHGFVVITFTTNTPTDQPDSRGSQLLAALDYLTTQSPTAVRQRLDNTRLSVIGHSMGGGGALRAANDRPDLQAAVPLGPYHTTKDWSGVRVPTMIIGGQYDSIAPNDQHSERFYNSLDSAPEKAYLRVTGTTHITVGTGTPGVGKYVLSWLKRFVDDDTRYDQFLCPTPSGPDVVEYHSTCPHA [TEP009]	49.3 C	28.4 µg																		
TNPAPPSTPNPPAEESPYVRGPNPTVSFLEARSGPLSVRTSRVSSLVSGFGGGTIHYPTGTTGTMGAVVVIPGFVSAESSIDWWGPKLASHGFVVLTIDTNTGFDQPPSRARQINNALDYLVSQNSSRTSPVRGMIDTNRLGVIGWSMGGGGTLRVASEGRIKAAIPLAPWDTVSSYAANAQAPTLIFACQADIVAPVAAHASPFYNRLPNSIDKAYVEISGGSHYCANGGGLNNNVLSRFGVSWMKRFLDEDTRYSQFLCGPNHRSDRDIADYRGNCP [ESM172]	49 C	26 µg																		
